Test results as given in patent publication US20220073599A1.

B1: Brolucizumab-analogue (scFv, INN chains, looked up, V domains shown)
VH: EVQLVESGGGLVQPGGSLRLSCTASGFSLTDYYYMTWVRQAPGKGLEWVGFIDPDDDPYYATWAKGRFTISRDNSKNTLYLQMNSLRAEDTAVYYCAGGDHNSGWGLDIWGQGTLVTVSS
VL: EIVMTQSPSTLSASVGDRVIITCQASEIIHSWLAWYQQKPGKAPKLLIYLASTLASGVPSRFSGSGSGAEFTLTISSLQPDDFATYYCQNVYLASTNGANFGQGTKLTVL
modifications: scFv
B2: bispecific anti-VEGF-A/anti-ANG2 Fab fragment P1AD9820 (Fab, V domains shown)
VH: SEHLVESGGGLVKPGGSLRLSCATADFFEYDDMSWVRQAPGKGLEWVGSISPKGDHKYLNTKFIGRFTISRDDSKNTLYLQMNSLRAEDTAVYYCARDVGFFDWWGQGTLVTVSS
VL: AIYMHQEPSSLSASVGDRVTITCHGSYWLNSEVAWYQQKPGKAPKLLIFDGDFKVYEVPSRFSGSGSHEDYTLTISSLQPEDFATYYCQQYRYHPYTFGHGTKVEIKR

Experiments:
[1] = molecular target: human VEGFA-165 (human) (UniProt P15692); assay: KinExA, VEGFA-165; set-up for VEGFA-165 not described
[2] = molecular target: human VEGFA-121-His (human) (UniProt P15692); assay: KinExA equilibrium titration in solution, VEGFA-121
[3] = molecular target: Pig VEGF-A-121 (pig) (UniProt P49151); assay: SPR crossreactivity set-up, VEGF-A121-His captured by anti-His antibody, Fab injected, single cycle kinetics
Chain of Pig VEGF-A-121 (pig) (P49151 other isoform, or with tags, fused parts or gaps limits assumed): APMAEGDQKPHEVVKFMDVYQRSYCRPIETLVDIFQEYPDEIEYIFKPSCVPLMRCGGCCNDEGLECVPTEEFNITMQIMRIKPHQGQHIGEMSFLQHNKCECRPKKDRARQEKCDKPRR

Chain of human VEGFA-121-His (human) (P15692 other isoform, or with tags, fused parts or gaps): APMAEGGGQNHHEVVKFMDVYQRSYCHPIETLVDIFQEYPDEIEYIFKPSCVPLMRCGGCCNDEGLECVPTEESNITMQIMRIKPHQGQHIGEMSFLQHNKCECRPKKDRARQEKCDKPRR
Chain of human VEGFA-165 (human) (P15692 other isoform, or with tags, fused parts or gaps limits assumed): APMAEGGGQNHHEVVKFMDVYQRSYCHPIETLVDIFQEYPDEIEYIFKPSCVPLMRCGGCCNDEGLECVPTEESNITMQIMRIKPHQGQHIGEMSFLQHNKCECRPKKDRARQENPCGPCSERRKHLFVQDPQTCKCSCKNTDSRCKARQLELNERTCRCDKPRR

Row | Binder | Kd [1] | Kd [2] | Kd [3] | koff [3] | kon [3] | t1/2 [3]
1 | B1 | 1 pM | 2 pM |  |  |  | 
2 | B2 |  |  | 2790 pM | 0.000499 s⁻¹ | 179000 M⁻¹ s⁻¹ | 23 min
